From the Human Domainome abundance scans (Beltran et al. 2025)
± gives the uncertainty stated by the source.

Assay: abundance fitness (aPCA) (normalised: wild type 0, dead -1); higher = more abundant; growth selection in yeast, the domain comes from the species named
Conditions: Homo sapiens

Row | Substance | abundance fitness
1 | Lipoamide acyltransferase component of branched-chain alpha-keto acid dehydrogenase complex, mitochondrial L209V, P11182 | 0.006 ± 0.039
2 | Lipoamide acyltransferase component of branched-chain alpha-keto acid dehydrogenase complex, mitochondrial L209W, P11182 | -0.27 ± 0.047
3 | Lipoamide acyltransferase component of branched-chain alpha-keto acid dehydrogenase complex, mitochondrial L209Y, P11182 | -0.232 ± 0.087
4 | Lipoamide acyltransferase component of branched-chain alpha-keto acid dehydrogenase complex, mitochondrial M182A, P11182 | 0.018 ± 0.072
5 | Lipoamide acyltransferase component of branched-chain alpha-keto acid dehydrogenase complex, mitochondrial M182C, P11182 | -0.478 ± 0.12
6 | Lipoamide acyltransferase component of branched-chain alpha-keto acid dehydrogenase complex, mitochondrial M182I, P11182 | -0.408 ± 0.24
7 | Lipoamide acyltransferase component of branched-chain alpha-keto acid dehydrogenase complex, mitochondrial M182T, P11182 | -0.173 ± 0.075
8 | Lipoamide acyltransferase component of branched-chain alpha-keto acid dehydrogenase complex, mitochondrial N184E, P11182 | -0.859 ± 0.39
9 | Lipoamide acyltransferase component of branched-chain alpha-keto acid dehydrogenase complex, mitochondrial N184G, P11182 | -0.294 ± 0.093
10 | Lipoamide acyltransferase component of branched-chain alpha-keto acid dehydrogenase complex, mitochondrial N184L, P11182 | -0.325 ± 0.11
11 | Lipoamide acyltransferase component of branched-chain alpha-keto acid dehydrogenase complex, mitochondrial N184P, P11182 | -1.08 ± 0.4
12 | Lipoamide acyltransferase component of branched-chain alpha-keto acid dehydrogenase complex, mitochondrial N184Q, P11182 | -0.16 ± 0.1
13 | Lipoamide acyltransferase component of branched-chain alpha-keto acid dehydrogenase complex, mitochondrial N184R, P11182 | -0.097 ± 0.072
14 | Lipoamide acyltransferase component of branched-chain alpha-keto acid dehydrogenase complex, mitochondrial N184S, P11182 | 0.168 ± 0.38
15 | Lipoamide acyltransferase component of branched-chain alpha-keto acid dehydrogenase complex, mitochondrial N184W, P11182 | -0.179 ± 0.1
16 | Lipoamide acyltransferase component of branched-chain alpha-keto acid dehydrogenase complex, mitochondrial N185A, P11182 | -0.21 ± 0.074
17 | Lipoamide acyltransferase component of branched-chain alpha-keto acid dehydrogenase complex, mitochondrial N185D, P11182 | -0.178 ± 0.092
18 | Lipoamide acyltransferase component of branched-chain alpha-keto acid dehydrogenase complex, mitochondrial N185E, P11182 | -0.09 ± 0.086
19 | Lipoamide acyltransferase component of branched-chain alpha-keto acid dehydrogenase complex, mitochondrial N185H, P11182 | -0.164 ± 0.16
20 | Lipoamide acyltransferase component of branched-chain alpha-keto acid dehydrogenase complex, mitochondrial N185I, P11182 | -0.83 ± 0.09
21 | Lipoamide acyltransferase component of branched-chain alpha-keto acid dehydrogenase complex, mitochondrial N185K, P11182 | 0.016 ± 0.1
22 | Lipoamide acyltransferase component of branched-chain alpha-keto acid dehydrogenase complex, mitochondrial N185L, P11182 | -0.514 ± 0.26
23 | Lipoamide acyltransferase component of branched-chain alpha-keto acid dehydrogenase complex, mitochondrial N185M, P11182 | -0.273 ± 0.18
24 | Lipoamide acyltransferase component of branched-chain alpha-keto acid dehydrogenase complex, mitochondrial N185P, P11182 | -1.01 ± 0.17

Row | Substance | abundance fitness
25 | Lipoamide acyltransferase component of branched-chain alpha-keto acid dehydrogenase complex, mitochondrial N185Q, P11182 | -0.155 ± 0.11
26 | Lipoamide acyltransferase component of branched-chain alpha-keto acid dehydrogenase complex, mitochondrial N185R, P11182 | -0.165 ± 0.1
27 | Lipoamide acyltransferase component of branched-chain alpha-keto acid dehydrogenase complex, mitochondrial N185V, P11182 | -0.744 ± 0.1
28 | Lipoamide acyltransferase component of branched-chain alpha-keto acid dehydrogenase complex, mitochondrial N185W, P11182 | -0.688 ± 0.16
29 | Lipoamide acyltransferase component of branched-chain alpha-keto acid dehydrogenase complex, mitochondrial N207A, P11182 | 0.034 ± 0.04
30 | Lipoamide acyltransferase component of branched-chain alpha-keto acid dehydrogenase complex, mitochondrial N207C, P11182 | -0.302 ± 0.1
31 | Lipoamide acyltransferase component of branched-chain alpha-keto acid dehydrogenase complex, mitochondrial N207D, P11182 | -0.009 ± 0.049
32 | Lipoamide acyltransferase component of branched-chain alpha-keto acid dehydrogenase complex, mitochondrial N207E, P11182 | -0.043 ± 0.047
33 | Lipoamide acyltransferase component of branched-chain alpha-keto acid dehydrogenase complex, mitochondrial N207F, P11182 | -0.339 ± 0.091
34 | Lipoamide acyltransferase component of branched-chain alpha-keto acid dehydrogenase complex, mitochondrial N207G, P11182 | -0.03 ± 0.042
35 | Lipoamide acyltransferase component of branched-chain alpha-keto acid dehydrogenase complex, mitochondrial N207I, P11182 | -0.261 ± 0.14
36 | Lipoamide acyltransferase component of branched-chain alpha-keto acid dehydrogenase complex, mitochondrial N207L, P11182 | -0.048 ± 0.048
37 | Lipoamide acyltransferase component of branched-chain alpha-keto acid dehydrogenase complex, mitochondrial N207P, P11182 | -0.199 ± 0.051
38 | Lipoamide acyltransferase component of branched-chain alpha-keto acid dehydrogenase complex, mitochondrial N207Q, P11182 | 0.035 ± 0.066
39 | Lipoamide acyltransferase component of branched-chain alpha-keto acid dehydrogenase complex, mitochondrial N207S, P11182 | -0.017 ± 0.044
40 | Lipoamide acyltransferase component of branched-chain alpha-keto acid dehydrogenase complex, mitochondrial N207V, P11182 | -0.11 ± 0.042
41 | Lipoamide acyltransferase component of branched-chain alpha-keto acid dehydrogenase complex, mitochondrial N207W, P11182 | -0.183 ± 0.041
42 | Lipoamide acyltransferase component of branched-chain alpha-keto acid dehydrogenase complex, mitochondrial N207Y, P11182 | -0.453 ± 0.23
43 | Lipoamide acyltransferase component of branched-chain alpha-keto acid dehydrogenase complex, mitochondrial P175A, P11182 | 0.023 ± 0.044
44 | Lipoamide acyltransferase component of branched-chain alpha-keto acid dehydrogenase complex, mitochondrial P175C, P11182 | -0.151 ± 0.062
45 | Lipoamide acyltransferase component of branched-chain alpha-keto acid dehydrogenase complex, mitochondrial P175D, P11182 | 0.038 ± 0.048
46 | Lipoamide acyltransferase component of branched-chain alpha-keto acid dehydrogenase complex, mitochondrial P175E, P11182 | 0.037 ± 0.047
47 | Lipoamide acyltransferase component of branched-chain alpha-keto acid dehydrogenase complex, mitochondrial P175F, P11182 | -0.098 ± 0.064
48 | Lipoamide acyltransferase component of branched-chain alpha-keto acid dehydrogenase complex, mitochondrial P175G, P11182 | -0.268 ± 0.035
